Measured values: IntAct's records for PubMed 30126976

B1: Sodium bicarbonate cotransporter 3 (Homo sapiens), Q9Y6M7 (parent)
chain: MERFRLEKKLPGPDEEAVVDLGKTSSTVNTKFEKEELESHRAVYIGVHVPFSKESRRRHRHRGHKHHHRRRKDKESDKEDGRESPSYDTPSQRVQFILGTEDDDEEHIPHDLFTEMDELCYRDGEEYEWKETARWLKFEEDVEDGGDRWSKPYVATLSLHSLFELRSCILNGTVMLDMRASTLDEIADMVLDNMIASGQLDESIRENVREALLKRHHHQNEKRFTSRIPLVRSFADIGKKHSDPHLLERNGEGLSASRHSLRTGLSASNLSLRGESPLSLLLGHLLPSSRAGTPAGSRCTTPVPTPQNSPPSSPSISRLTSRSSQESQRQAPELLVSPASDDIPTVVIHPPEEDLEAALKGEEQKNEENVDLTPGILASPQSAPGNLDNSKSGEIKGNGSGGSRENSTVDFSKVDMNFMRKIPTGAEASNVLVGEVDFLERPIIAFVRLAPAVLLTGLTEVPVPTRFLFLLLGPAGKAPQYHEIGRSIATLMTDEIFHDVAYKAKDRNDLLSGIDEFLDQVTVLPPGEWDPSIRIEPPKSVPSQEKRKIPVFHNGSTPTLGETPKEAAHHAGPELQRTGRLFGGLILDIKRKAPFFLSDFKDALSLQCLASILFLYCACMSPVITFGGLLGEATEGRISAIESLFGASLTGIAYSLFAGQPLTILGSTGPVLVFEKILYKFCRDYQLSYLSLRTSIGLWTSFLCIVLVATDASSLVCYITRFTEEAFAALICIIFIYEALEKLFDLGETYAFNMHNNLDKLTSYSCVCTEPPNPSNETLAQWKKDNITAHNISWRNLTVSECKKLRGVFLGSACGHHGPYIPDVLFWCVILFFTTFFLSSFLKQFKTKRYFPTKVRSTISDFAVFLTIVIMVTIDYLVGVPSPKLHVPEKFEPTHPERGWIISPLGDNPWWTLLIAAIPALLCTILIFMDQQITAVIINRKEHKLKKGAGYHLDLLMVGVMLGVCSVMGLPWFVAATVLSISHVNSLKVESECSAPGEQPKFLGIREQRVTGLMIFILMGLSVFMTSVLKFIPMPVLYGVFLYMGVSSLKGIQLFDRIKLFGMPAKHQPDLIYLRYVPLWKVHIFTVIQLTCLVLLWVIKVSAAAVVFPMMVLALVFVRKLMDLCFTKRELSWLDDLMPESKKKKEDDKKKKEKEEAERMLQDDDDTVHLPFEGGSLLQIPVKALKYSPDKPVSVKISFEDEPRKKYVDAETSL
B2: Rho guanine nucleotide exchange factor 16 (Homo sapiens), Q5VV41 (parent)
chain: MAQRHSDSSLEEKLLGHRFHSELRLDAGGNPASGLPMVRGSPRVRDDAAFQPQVPAPPQPRPPGHEEPWPIVLSTESPAALKLGTQQLIPKSLAVASKAKTPARHQSFGAAVLSREAARRDPKLLPAPSFSLDDMDVDKDPGGMLRRNLRNQSYRAAMKGLGKPGGQGDAIQLSPKLQALAEEPSQPHTRSPAKNKKTLGRKRGHKGSFKDDPQLYQEIQERGLNTSQESDDDILDESSSPEGTQKVDATIVVKSYRPAQVTWSQLPEVVELGILDQLSTEERKRQEAMFEILTSEFSYQHSLSILVEEFLQSKELRATVTQMEHHHLFSNILDVLGASQRFFEDLEQRHKAQVLVEDISDILEEHAEKHFHPYIAYCSNEVYQQRTLQKLISSNAAFREALREIERRPACGGLPMLSFLILPMQRVTRLPLLMDTLCLKTQGHSERYKAASRALKAISKLVRQCNEGAHRMERMEQMYTLHTQLDFSKVKSLPLISASRWLLKRGELFLVEETGLFRKIASRPTCYLFLFNDVLVVTKKKSEESYMVQDYAQMNHIQVEKIEPSELPLPGGGNRSSSVPHPFQVTLLRNSEGRQEQLLLSSDSASDRARWIVALTHSERQWQGLSSKGDLPQVEITKAFFAKQADEVTLQQADVVLVLQQEDGWLYGERLRDGETGWFPEDFARFITSRVAVEGNVRRMERLRVETDV
B3: Ecotropic viral integration site 5 protein homolog (Homo sapiens), O60447 (parent)
chain: MVTNKMTAAFRNPSGKQVATDKVAEKLSSTLSWVKNTVSHTVSQMASQVASPSTSLHTTSSSTTLSTPALSPSSPSQLSPDDLELLAKLEEQNRLLETDSKSLRSVNGSRRNSGSSLVSSSSASSNLSHLEEDSWILWGRIVNEWEDVRKKKEKQVKELVHKGIPHHFRAIVWQLLCSAQSMPIKDQYSELLKMTSPCEKLIRRDIARTYPEHNFFKEKDSLGQEVLFNVMKAYSLVDREVGYCQGSAFIVGLLLMQMPEEEAFCVFVKLMQDYRLRELFKPSMAELGLCMYQFECMIQEHLPELFVHFQSQSFHTSMYASSWFLTIFLTTFPLPIATRIFDIFMSEGLEIVFRVGLALLQMNQAELMQLDMEGMLQHFQKVIPHQFDGVPDKLIQAAYQVKYNSKKMKKLEKEYTTIKTKEMEEQVEIKRLRTENRLLKQRIETLEKHKCSSNYNEDFVLQLEKELVQARLSEAESQCALKEMQDKVLDIEKRNNSLPDENNIARLQEELIAVKLREAEAIMGLKELRQQVKDLEEHWQRHLARTTGRWKDPPKKNAMNELQDELMTIRLREAETQAEIREIKQRMMEMETQNQINSNHLRRAEQEVISLQEKVQYLSAQNKGLLTQLSEAKRKQAEIECKNKEEVMAVRLREADSIAAVAELRQHIAELEIQKEEGKLQGQLNKSDSNQYIGELKDQIAELNHELRCLKGQRGFSGQPPFDGIHIVNHLIGDDESFHSSDEDFIDNSLQETGVGFPLHGKSGSMSLDPAVADGSESETEDSVLETRESNQVVQKERPPRRRESYSTTV
B4: A-kinase anchor protein 1, mitochondrial (Homo sapiens), Q92667 (parent)
chain: MAIQFRSLFPLALPGMLALLGWWWFFSRKKGHVSSHDEQQVEAGAVQLRADPAIKEPLPVEDVCPKVVSTPPSVTEPPEKELSTVSKLPAEPPALLQTHPPCRRSESSGILPNTTDMRLRPGTRRDDSTKLELALTGGEAKSIPLECPLSSPKGVLFSSKSAEVCKQDSPFSRVPRKVQPGYPVVPAEKRSSGERARETGGAEGTGDAVLGEKVLEEALLSREHVLELENSKGPSLASLEGEEDKGKSSSSQVVGPVQEEEYVAEKLPSRFIESAHTELAKDDAAPAPPVADAKAQDRGVEGELGNEESLDRNEEGLDRNEEGLDRNEESLDRNEEGLDRNEEIKRAAFQIISQVISEATEQVLATTVGKVAGRVCQASQLQGQKEESCVPVHQKTVLGPDTAEPATAEAAVAPPDAGLPLPGLPAEGSPPPKTYVSCLKSLLSSPTKDSKPNISAHHISLASCLALTTPSEELPDRAGILVEDATCVTCMSDSSQSVPLVASPGHCSDSFSTSGLEDSCTETSSSPRDKAITPPLPESTVPFSNGVLKGELSDLGAEDGWTMDAEADHSGGSDRNSMDSVDSCCSLKKTESFQNAQAGSNPKKVDLIIWEIEVPKHLVGRLIGKQGRYVSFLKQTSGAKIYISTLPYTQSVQICHIEGSQHHVDKALNLIGKKFKELNLTNIYAPPLPSLALPSLPMTSWLMLPDGITVEVIVVNQVNAGHLFVQQHTHPTFHALRSLDQQMYLCYSQPGIPTLPTPVEITVICAAPGADGAWWRAQVVASYEETNEVEIRYVDYGGYKRVKVDVLRQIRSDFVTLPFQGAEVLLDSVMPLSDDDQFSPEADAAMSEMTGNTALLAQVTSYSPTGLPLIQLWSVVGDEVVLINRSLVERGLAQWVDSYYTSL
B5: 5-hydroxytryptamine receptor 2C (Homo sapiens), P28335 (parent)
chain: MVNLRNAVHSFLVHLIGLLVWQSDISVSPVAAIVTDIFNTSDGGRFKFPDGVQNWPALSIVIIIIMTIGGNILVIMAVSMEKKLHNATNYFLMSLAIADMLVGLLVMPLSLLAILYDYVWPLPRYLCPVWISLDVLFSTASIMHLCAISLDRYVAIRNPIEHSRFNSRTKAIMKIAIVWAISIGVSVPIPVIGLRDEEKVFVNNTTCVLNDPNFVLIGSFVAFFIPLTIMVITYCLTIYVLRRQALMLLHGHTEEPPGLSLDFLKCCKRNTAEEENSANPNQDQNARRRKKKERRPRGTMQAINNERKASKVLGIVFFVFLIMWCPFFITNILSVLCEKSCNQKLMEKLLNVFVWIGYVCSGINPLVYTLFNKIYRRAFSNYLRCNYKVEKKPPVRQIPRVAATALSGRELNVNIYRHTNEPVIEKASDNEPGIEMQVENLELPVNPSSVVSERISSV
B6: Vang-like protein 2 (Homo sapiens), Q9ULK5 (parent)
chain: MDTESQYSGYSYKSGHSRSSRKHRDRRDRHRSKSRDGGRGDKSVTIQAPGEPLLDNESTRGDERDDNWGETTTVVTGTSEHSISHDDLTRIAKDMEDSVPLDCSRHLGVAAGATLALLSFLTPLAFLLLPPLLWREELEPCGTACEGLFISVAFKLLILLLGSWALFFRRPKASLPRVFVLRALLMVLVFLLVVSYWLFYGVRILDARERSYQGVVQFAVSLVDALLFVHYLAVVLLELRQLQPQFTLKVVRSTDGASRFYNVGHLSIQRVAVWILEKYYHDFPVYNPALLNLPKSVLAKKVSGFKVYSLGEENSTNNSTGQSRAVIAAAARRRDNSHNEYYYEEAEHERRVRKRRARLVVAVEEAFTHIKRLQEEEQKNPREVMDPREAAQAIFASMARAMQKYLRTTKQQPYHTMESILQHLEFCITHDMTPKAFLERYLAAGPTIQYHKERWLAKQWTLVSEEPVTNGLKDGIVFLLKRQDFSLVVSTKKVPFFKLSEEFVDPKSHKFVMRLQSETSV

Variants of: B1
Conditions: with scrib_human SCRIB
Target sequence in this assay (Q14160 whole entry): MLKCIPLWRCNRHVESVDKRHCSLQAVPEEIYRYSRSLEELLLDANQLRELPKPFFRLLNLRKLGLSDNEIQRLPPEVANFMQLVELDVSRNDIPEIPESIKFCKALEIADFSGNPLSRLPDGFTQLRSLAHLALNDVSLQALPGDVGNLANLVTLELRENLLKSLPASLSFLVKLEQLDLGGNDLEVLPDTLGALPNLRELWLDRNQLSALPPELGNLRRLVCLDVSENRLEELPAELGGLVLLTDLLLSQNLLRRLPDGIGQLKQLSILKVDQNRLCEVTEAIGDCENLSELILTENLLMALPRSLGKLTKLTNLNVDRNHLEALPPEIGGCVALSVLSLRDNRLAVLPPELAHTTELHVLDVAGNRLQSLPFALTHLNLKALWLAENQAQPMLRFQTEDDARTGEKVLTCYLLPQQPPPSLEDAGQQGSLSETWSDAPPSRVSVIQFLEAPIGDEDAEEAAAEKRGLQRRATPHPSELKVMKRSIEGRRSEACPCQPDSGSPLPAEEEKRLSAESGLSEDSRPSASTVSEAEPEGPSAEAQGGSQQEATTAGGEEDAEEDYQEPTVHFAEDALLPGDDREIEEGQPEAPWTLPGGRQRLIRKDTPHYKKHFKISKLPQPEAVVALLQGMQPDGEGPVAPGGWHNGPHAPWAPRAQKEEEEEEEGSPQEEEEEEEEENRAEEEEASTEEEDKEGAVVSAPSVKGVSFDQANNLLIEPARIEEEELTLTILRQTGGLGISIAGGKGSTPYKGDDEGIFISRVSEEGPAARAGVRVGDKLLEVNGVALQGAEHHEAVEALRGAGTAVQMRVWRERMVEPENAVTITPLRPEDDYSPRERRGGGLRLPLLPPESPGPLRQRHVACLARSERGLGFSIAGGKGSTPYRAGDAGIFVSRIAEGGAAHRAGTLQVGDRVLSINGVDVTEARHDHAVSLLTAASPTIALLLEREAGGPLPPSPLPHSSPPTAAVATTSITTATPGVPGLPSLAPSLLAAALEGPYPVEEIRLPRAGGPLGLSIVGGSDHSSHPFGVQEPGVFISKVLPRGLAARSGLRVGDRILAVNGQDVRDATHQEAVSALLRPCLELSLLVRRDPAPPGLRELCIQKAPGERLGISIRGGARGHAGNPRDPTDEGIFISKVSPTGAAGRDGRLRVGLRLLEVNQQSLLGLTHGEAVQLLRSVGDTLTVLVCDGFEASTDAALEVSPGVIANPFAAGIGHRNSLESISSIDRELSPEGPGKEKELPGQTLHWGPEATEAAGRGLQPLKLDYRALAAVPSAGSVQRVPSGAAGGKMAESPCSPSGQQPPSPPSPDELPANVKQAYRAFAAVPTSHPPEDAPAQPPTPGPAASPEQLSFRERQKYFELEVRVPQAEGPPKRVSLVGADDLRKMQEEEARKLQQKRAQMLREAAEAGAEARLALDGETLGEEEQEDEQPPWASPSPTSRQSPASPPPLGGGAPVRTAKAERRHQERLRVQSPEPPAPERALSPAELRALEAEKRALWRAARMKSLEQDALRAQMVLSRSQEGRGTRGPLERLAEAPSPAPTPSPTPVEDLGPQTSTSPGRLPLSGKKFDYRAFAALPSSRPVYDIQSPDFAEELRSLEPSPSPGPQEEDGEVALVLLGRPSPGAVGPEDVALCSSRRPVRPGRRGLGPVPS
S1213E was tested, and the “effect of a mutation on the interaction” value was “with no effect”.

Variants of: B2
Conditions: with scrib_human SCRIB
Target sequence in this assay (Q14160 whole entry): as above
For T707E, the “effect of a mutation on the interaction” value was “disrupting interaction strength”.

Variants of: B2
Conditions: with dlg1_human DLG1, Q12959
Target sequence in this assay (Q12959 whole entry, looked up): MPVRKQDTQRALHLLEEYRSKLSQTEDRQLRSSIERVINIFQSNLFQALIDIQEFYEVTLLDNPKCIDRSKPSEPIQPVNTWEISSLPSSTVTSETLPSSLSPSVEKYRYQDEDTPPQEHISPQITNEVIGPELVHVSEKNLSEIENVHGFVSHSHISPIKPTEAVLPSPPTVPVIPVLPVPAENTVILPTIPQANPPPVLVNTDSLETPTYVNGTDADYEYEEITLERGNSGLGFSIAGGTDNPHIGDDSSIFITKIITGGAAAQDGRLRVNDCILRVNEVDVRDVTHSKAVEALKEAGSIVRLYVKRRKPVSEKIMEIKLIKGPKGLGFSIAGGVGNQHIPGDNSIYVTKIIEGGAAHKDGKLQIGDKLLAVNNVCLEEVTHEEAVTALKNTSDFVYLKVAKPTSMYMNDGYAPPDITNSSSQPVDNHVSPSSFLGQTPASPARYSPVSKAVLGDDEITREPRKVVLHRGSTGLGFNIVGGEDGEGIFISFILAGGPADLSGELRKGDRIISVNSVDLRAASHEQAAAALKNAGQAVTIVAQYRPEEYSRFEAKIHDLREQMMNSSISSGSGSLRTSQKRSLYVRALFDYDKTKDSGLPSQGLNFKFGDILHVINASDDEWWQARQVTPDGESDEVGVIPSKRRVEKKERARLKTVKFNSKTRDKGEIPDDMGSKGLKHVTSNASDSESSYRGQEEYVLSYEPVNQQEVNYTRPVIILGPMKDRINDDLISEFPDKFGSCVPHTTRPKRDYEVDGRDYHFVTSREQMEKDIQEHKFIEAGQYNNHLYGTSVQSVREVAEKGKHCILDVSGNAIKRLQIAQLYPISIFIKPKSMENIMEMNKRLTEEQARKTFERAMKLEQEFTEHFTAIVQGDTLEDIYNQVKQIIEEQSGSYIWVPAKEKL
For T707E, the “effect of a mutation on the interaction” value was “disrupting interaction strength”.

Variants of: B3
Conditions: with dlg1_human DLG1, Q12959
Target sequence in this assay (Q12959 whole entry, looked up): as above
S805E was tested, and the “effect of a mutation on the interaction” value was “decreasing interaction strength”.

Variants of: B4
Conditions: with scrib_human SCRIB
Target sequence in this assay (Q14160 whole entry): as the sequence (Q14160 whole entry) above
S902E was tested, and the “effect of a mutation on the interaction” value was “increasing interaction strength”.

Variants of: B5
Conditions: with dlg1_human DLG1, Q12959
Target sequence in this assay (Q12959 whole entry, looked up): as the sequence (Q12959 whole entry, looked up) above
With S457E the “effect of a mutation on the interaction” value was “with no effect”.

Variants of: B6
Conditions: with dlg1_human DLG1, Q12959
Target sequence in this assay (Q12959 whole entry, looked up): as above
S520E was tested, and the “effect of a mutation on the interaction” value was “increasing interaction strength”.
